The target in one series is GAPDH-K215E (UniProt P04406 1-335, K215E). The series is described as follows: fluorescence anisotropy.
The next series has as its target GAPDH-wt (UniProt P04406 1-335). The series is described as follows: fluorescence anisotropy. For orientation: Fluorescence polarisation rises when a labelled molecule tumbles more slowly, as on binding a larger partner.

Sequence of GAPDH-K215E (P04406 whole entry K215E): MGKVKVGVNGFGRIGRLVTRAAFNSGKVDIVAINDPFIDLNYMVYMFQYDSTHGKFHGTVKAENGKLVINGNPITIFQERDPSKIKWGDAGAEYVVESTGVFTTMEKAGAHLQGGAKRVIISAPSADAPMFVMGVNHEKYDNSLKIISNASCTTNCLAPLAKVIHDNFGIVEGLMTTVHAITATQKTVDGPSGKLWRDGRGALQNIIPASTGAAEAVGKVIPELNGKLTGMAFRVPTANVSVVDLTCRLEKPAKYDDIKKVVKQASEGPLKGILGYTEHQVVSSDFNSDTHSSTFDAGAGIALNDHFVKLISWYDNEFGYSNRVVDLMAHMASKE
Sequence of GAPDH-wt (P04406 whole entry): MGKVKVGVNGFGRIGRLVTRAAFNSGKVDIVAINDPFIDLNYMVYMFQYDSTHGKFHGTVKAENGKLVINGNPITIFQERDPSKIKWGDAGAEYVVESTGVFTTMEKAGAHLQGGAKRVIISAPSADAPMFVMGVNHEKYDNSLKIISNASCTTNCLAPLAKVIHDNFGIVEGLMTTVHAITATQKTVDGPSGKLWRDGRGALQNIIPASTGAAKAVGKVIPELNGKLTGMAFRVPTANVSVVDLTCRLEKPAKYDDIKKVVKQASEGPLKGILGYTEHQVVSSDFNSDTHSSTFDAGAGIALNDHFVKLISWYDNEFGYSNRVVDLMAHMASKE

As for AAAAAAAAAAAAAAAAAAAA (ssRNA) [20A-RNA], the equilibrium dissociation constant (Kd) – broadly, the equilibrium constant for the complex coming apart – in the series with GAPDH-K215E amounted to 3.1 ± 0.217 µM; with GAPDH-wt it was 0.132 ± 0.01 µM.

The record behind these values is article doi:10.1101/2025.10.03.680225.
